Columns and labels:
[1] = target: T1, recombinant soluble human IL-6 receptor (SR344) (human, UniProt P08887 20-344, biotinylated (sites not given) where immobilized via streptavidin or used in phage ELISA); assay: SPR Biacore T100, antibody on protein A/G chip, SR344 analyte, 37 C
T1 construct: also called soluble IL-6 receptor; membrane-type IL-6 receptor (when biotinylated and immobilized on the chip)
T1 sequence (looked up): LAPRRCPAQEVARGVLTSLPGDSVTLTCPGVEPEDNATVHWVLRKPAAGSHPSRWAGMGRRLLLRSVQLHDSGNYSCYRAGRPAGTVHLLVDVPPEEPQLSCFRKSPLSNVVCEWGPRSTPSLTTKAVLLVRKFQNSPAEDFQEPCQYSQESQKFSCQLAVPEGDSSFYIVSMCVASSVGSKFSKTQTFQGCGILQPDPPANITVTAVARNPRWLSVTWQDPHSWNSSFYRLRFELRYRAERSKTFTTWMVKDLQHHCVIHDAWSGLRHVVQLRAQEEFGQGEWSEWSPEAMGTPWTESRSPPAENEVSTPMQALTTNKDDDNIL
Procedure: (§1) Kinetic analyses of antigen-antibody reactions at pH 5.8 and pH 7.4 were carried out using a Biacore™ T100 surface plasmon resonance system (GE Healthcare) on the four antibodies: humanized PM1 antibody (WT) and H3pI/L73, CLH5/L73, and H170/L82 produced in Examples 2 and 4 (buffer: 10 mM MES (pH 7.4 or pH 5.8), 150 mM NaCl, and 0.05% TWEEN® 20 (polyoxyethelene sorbitan monolaurate)). Various antibodies were bound onto a sensor chip immobilized with recomb-protein A/G (Pierce) by amine coupling. SR344 adjusted to concentrations of 9.8 to 400 nM was injected to the chip as an analyte. […] All the measurements were carried out at 37° C. Association rate constants kₐ (1/Ms) and dissociation rate constants kd (1/s) were calculated using Biacore T100™ Evaluation Software (GE Healthcare), and dissociation constants KD (M) were calculated on the basis of those values (Table 5). Moreover, the ratio of the affinities at pH 5.8 and pH 7.4 were calculated for each clone to evaluate pH-dependent binding. All the measurements were carried out at 37° C.

[2] = target: T1, recombinant soluble human IL-6 receptor …; assay: SPR Biacore T100, integrated RU of SR344 bound over ten cycles, 37 C
Procedure: The produced pH-dependent binding clones described above were analyzed using a Biacore T100™ surface plasmon resonance system (GE Healthcare) for their ability to bind to the antigen SR344 multiple times at pH 5.8 and pH 7.4. More specifically, the analysis was carried out as follows. All the measurements were carried out at 37° C. First, the sample antibodies described above were bound onto a recomb-protein A/G (Pierce)-immobilized sensor chip by amine-coupling, where the mobile phase buffer was 10 mM MES (pH 5.8), 150 mM NaCl, and 0.05% TWEEN® 20 (polyoxyethelene sorbitan monolaurate) (step 1). SR344 adjusted to a concentration of about 40 nM was injected as an analyte for 3 minutes at pH 7.4 and allowed to bind (the buffer for injected SR344 was 10 mM MES (pH 7.4), 150 mM NaCl, and 0.05% TWEEN® 20 (polyoxyethelene sorbitan monolaurate)) (step 2). Subsequently, the injection of SR344 was discontinued and a mobile phase of pH 5.8 was allowed to flow for about 70 seconds to expose the antibody/SR344 complex under acidic conditions (step 3). Ten sets of this binding (step 2)/acidity exposure (step 3) process were continuously repeated to observe the sensorgram in real-time, which is shown in FIG. 11. […] In the 10-set repetition of the binding (step 2) and acidic exposure (step 3), almost all H170/L82 and CLH5/L73 antibodies were able to bind to new antigens in each set. […]

[3] = target: T1, recombinant soluble human IL-6 receptor …; assay: SPR Biacore T100, antibody on protein A/G chip, SR344 analyte, pH 5.8, 37 C
Procedure: as §1

[4] = target: T1, recombinant soluble human IL-6 receptor …; assay: SPR Biacore T100, antibody on protein A/G chip, SR344 analyte, pH 7.4, 37 C
Procedure: as §1

[5] = target: T1, recombinant soluble human IL-6 receptor …; assay: SPR Biacore T100, antibody on protein A/G chip, SR344 analyte, 37 C, ratio of pH 5.8 to pH 7.4
Procedure: as §1

[6] = target: T1, recombinant soluble human IL-6 receptor …; assay: SPR Biacore T100, biotinylated SR344 on streptavidin chip (model of membrane IL-6 receptor), antibody 0.5 ug/mL as analyte, 37 C
Procedure: (§2) The binding to membrane IL-6 receptor was evaluated by evaluating the binding to the IL-6 receptor immobilized onto a sensor chip. SR344 was biotinylated according to a method known to persons skilled in the art, and the biotinylated SR344 was immobilized on the sensor chip via streptavidin by utilizing the affinity between streptavidin and biotin. All the measurements were carried out at 37° C., and the mobile phase buffer contained 10 mM MES (pH 5.8), 150 mM NaCl and 0.05% TWEEN® 20 (polyoxyethelene sorbitan monolaurate). The pH-dependent binding clones were injected therein under the condition of pH 7.4 and allowed to bind to SR344 (injection sample buffer: 10 mM MES (pH 7.4), 150 mM NaCl, 0.05% TWEEN® 20 (polyoxyethelene sorbitan monolaurate)), and the pH-dependent dissociation of each clone at the mobile phase pH of 5.8 was observed (FIG. 10).
(§3) The dissociation rate […]) at pH 5.8 was calculated using Biacore T100™ Evaluation Software (GE Healthcare) by fitting only the dissociation phase at pH 5.8, where 0.5 μg/mL of the sample was bound in 10 mM MES (pH 7.4), 150 mM NaCl, and 0.05% TWEEN® 20 (polyoxyethelene sorbitan monolaurate), and dissociated in 10 mM MES (pH 5.8), 150 mM NaCl, and 0.05% TWEEN® 20 (polyoxyethelene sorbitan monolaurate). Similarly, the dissociation rate (kd(1/s)) at pH 7.4 was calculated using Biacore T100™ Evaluation Software (GE Healthcare) by fitting only the dissociation phase at pH 7.4, where 0.5 μg/mL of the sample was bound in 10 mM MES (pH 7.4), 150 mM NaCl, and 0.05% TWEEN® 20 (polyoxyethelene sorbitan monolaurate), and dissociated in 10 mM MES (pH 7.4), 150 mM NaCl, and 0.05% TWEEN® 20 (polyoxyethelene sorbitan monolaurate).

[7] = target: T1, recombinant soluble human IL-6 receptor …; assay: SPR Biacore T100, biotinylated SR344 on streptavidin chip (model of membrane IL-6 receptor), antibody 0.5 ug/mL as analyte, bound at pH 7.4, dissociation at pH 5.8, 37 C
Procedure: as §2, §3

[8] = target: T1, recombinant soluble human IL-6 receptor …; assay: SPR Biacore T100, biotinylated SR344 on streptavidin chip (model of membrane IL-6 receptor), antibody 0.5 ug/mL as analyte, bound at pH 7.4, dissociation at pH 7.4, 37 C
Procedure: as §2, §3

[9] = target: T2, soluble mouse IL-31 receptor (mouse, UniProt Q8K5B1 19-499); assay: SPR Biacore T100, antibody on protein A/G chip, soluble mouse IL-31 receptor analyte, 25 C
T2 sequence (looked up): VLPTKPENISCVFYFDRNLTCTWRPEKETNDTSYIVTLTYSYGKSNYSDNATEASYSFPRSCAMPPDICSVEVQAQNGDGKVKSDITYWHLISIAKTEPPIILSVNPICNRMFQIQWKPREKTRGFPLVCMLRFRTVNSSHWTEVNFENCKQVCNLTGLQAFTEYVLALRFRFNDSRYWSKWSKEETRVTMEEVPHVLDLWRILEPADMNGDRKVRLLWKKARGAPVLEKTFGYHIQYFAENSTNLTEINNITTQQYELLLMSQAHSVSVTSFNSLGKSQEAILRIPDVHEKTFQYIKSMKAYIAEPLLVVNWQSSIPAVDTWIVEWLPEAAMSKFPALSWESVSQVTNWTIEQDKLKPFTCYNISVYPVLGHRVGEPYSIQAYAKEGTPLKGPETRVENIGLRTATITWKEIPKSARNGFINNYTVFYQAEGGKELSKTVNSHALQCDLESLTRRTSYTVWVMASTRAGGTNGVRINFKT
Procedure: (§4) Kinetic analysis of antigen-antibody reactions at pH 5.5 and pH 7.4 was carried out using a Biacore T100™ surface plasmon resonance system (GE Healthcare) for the two types of antibodies prepared as mentioned above: Anti-IL31R wild type and Anti-IL31R clone 1 (buffer: DPBS(−) (pH 7.4 or pH 5.5), 150 mM NaCl, 0.01% TWEEN® 20 (polyoxyethelene sorbitan monolaurate), 0.02% NaN₃). The antibodies were bound to a sensor chip on which recomb-protein A/G (Pierce) was immobilized by amine coupling, and then the soluble mouse IL-31 receptor (prepared according to the method described in WO 2007/142325) adjusted to an appropriate concentration was injected therein as an analyte. All the measurements were carried out at 25° C. Association rate constants kₐ (1/Ms) and dissociation rate constants kd (1/s) were calculated using Biacore T100™ Evaluation Software (GE Healthcare), and dissociation constants KD (M) were calculated based on those values (Table 16). Furthermore, the ratio of affinity at pH 5.5 and pH 7.4 was calculated for each clone to evaluate the pH-dependent binding.

[10] = target: T2, soluble mouse IL-31 receptor; assay: SPR Biacore T100, antibody on protein A/G chip, soluble mouse IL-31 receptor analyte, pH 5.5, 25 C
Procedure: as §4

[11] = target: T2, soluble mouse IL-31 receptor; assay: SPR Biacore T100, antibody on protein A/G chip, soluble mouse IL-31 receptor analyte, pH 7.4, 25 C
Procedure: as §4

[12] = target: T2, soluble mouse IL-31 receptor; assay: SPR Biacore T100, antibody on protein A/G chip, soluble mouse IL-31 receptor analyte, 25 C, ratio of pH 5.5 to pH 7.4
Procedure: as §4

B1: CLH5/L73 (antibody, IgG1, V domains shown)
VH: QVQLQESGPGLVKPSETLSLTCAVSGYSISHDHAWSWVRQPPGEGLEWIGHISYSGITNYNPHLKGRVTISRDTSKNQFSLKLSSVTAADTAAYYCARFLARITAHDHWGEGTLVTVSS
VL: DIQMTQSPSSLSASVGDSVTITCQASQHISSHLNWYQQKPGKAPELLIYYGSHLHSGVPSRFSGSGSGTDFTFTISSLEAEDAATYYCGQGNRLPYTFGQGTKVEIE
notes: expressed and purified as IgG
For B1, the “pH-dependent binding (affinity ratio) relative to WT” value [1] was over 15 fold, the “total amount of antigen bound over ten cycles relative to WT” value [2] was about 4 fold and the Kd [3] was 74 nM. For the same binder, the koff [3] was 0.028 s⁻¹, the kon [3] was 380000 M⁻¹ s⁻¹ and the Kd [4] was 1.1 nM. The koff [4] was 0.00079 s⁻¹, the kon [4] was 710000 M⁻¹ s⁻¹ and the “KD (pH 5.8)/KD (pH 7.4)” value [5] was 66.1. For the same binder, the “kd ratio pH 5.8/pH 7.4” value [6] was 5.5, the koff [7] was 0.00567 s⁻¹ and the koff [8] was 0.00104 s⁻¹.

B2: Anti-IL31R clone 1 (antibody, human IgG1, lambda, V domains shown)
VH: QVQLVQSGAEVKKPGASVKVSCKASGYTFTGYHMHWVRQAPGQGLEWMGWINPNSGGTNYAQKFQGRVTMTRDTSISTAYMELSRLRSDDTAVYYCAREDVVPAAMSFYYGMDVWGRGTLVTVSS
VL: LPVLTQPPSVSVAPGQTARITCGGNNIGSKTVYWYQQEPGQAPVLVVYDDTDRPAGIPERFSGANSGNTATLTISRVEAGDEADYYCQVWDSSTDHGVFGGGTKLTVLG
notes: H chain (c1) / L chain (WT)
With B2 the “pH-dependent binding ability relative to WT” value [9] was about 300 fold, the Kd [10] was 22000 nM and the koff [10] was 0.024 s⁻¹. The kon [10] was 1100 M⁻¹ s⁻¹, the Kd [11] was 22 nM and the koff [11] was 0.0033 s⁻¹. For the same binder, the kon [11] was 170000 M⁻¹ s⁻¹ and the “KD (pH 5.5)/KD (pH 7.4)” value [12] was 1000.

Source: patent US20180282719A1 (published 2018)
